Data taken from patent US20200165335A1 (Seagen, published 2020).

T1: human LIV-1 (human, UniProt Q13433 29-755)
T1 construct: also called hLIV-1; Q13433
T1 sequence: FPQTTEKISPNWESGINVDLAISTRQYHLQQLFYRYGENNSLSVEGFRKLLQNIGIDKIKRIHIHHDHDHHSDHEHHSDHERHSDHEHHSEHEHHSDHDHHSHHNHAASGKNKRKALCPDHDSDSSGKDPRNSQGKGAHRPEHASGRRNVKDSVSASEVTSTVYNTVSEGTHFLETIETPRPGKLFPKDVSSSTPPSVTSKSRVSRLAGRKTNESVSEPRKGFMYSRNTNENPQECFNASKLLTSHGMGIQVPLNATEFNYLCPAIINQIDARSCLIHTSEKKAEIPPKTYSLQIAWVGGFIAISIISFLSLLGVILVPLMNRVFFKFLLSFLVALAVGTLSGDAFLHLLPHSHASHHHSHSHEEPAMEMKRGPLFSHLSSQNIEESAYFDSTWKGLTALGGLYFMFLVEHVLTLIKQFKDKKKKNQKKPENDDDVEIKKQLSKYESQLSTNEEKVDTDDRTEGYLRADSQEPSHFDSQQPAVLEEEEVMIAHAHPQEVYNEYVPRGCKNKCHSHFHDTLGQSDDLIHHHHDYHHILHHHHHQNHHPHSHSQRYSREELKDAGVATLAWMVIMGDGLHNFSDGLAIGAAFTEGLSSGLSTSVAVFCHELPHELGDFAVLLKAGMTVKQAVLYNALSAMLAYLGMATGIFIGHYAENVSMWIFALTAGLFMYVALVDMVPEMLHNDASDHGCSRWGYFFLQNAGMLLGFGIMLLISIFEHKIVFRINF


biological target: T1, human LIV-1; assay: competition flow cytometry, CHO cells expressing human LIV-1, vs 5 nM AF647-labelled BR2-14a
Method: 1×10⁵ CHO cells expressing recombinant human LIV-1 in PBS/BSA were aliquoted into each well of a 96-well v-bottom plates on ice. […] Cells were pelleted and washed 3 times with PBS/BSA. The cells were pelleted and resuspended in 125 μL of PBS/BSA. Fluorescence was analyzed by flow cytometry, using percent of saturated fluorescent signal to determine percent labeled murine LIV-1 mAb bound and to subsequently extrapolate the EC50 by fitting the data to a sigmoidal dose-response curve with variable slope.

Row | Binder | EC50 | binding result
1 | humanized BR2-14a antibody HALA (antibody, V domains shown, also called hLIV-1 HA + hLIV-1 LA) VH: QVQLVQSGAEVKKPGASVKVSCKASGYTFTDYYMHWVRQAPGQGLEWMGWIDPENGDTEYAPTFQGRVTMTRDTSISTAYMELSRLRSDDTAVYYCARHDAHYGTWFAYWGQGTLVTVSS VL: DVVMTQSPLSLPVTLGQPASISCRSSQSIIRNDGNTYLEWFQQRPGQSPRRLIYRVSNRFSGVPDRFSGSGSGTDFTLKISRVEAEDVGVYYCFQGSHVPYTFGGGTKVEIKR |  | no binding (tested: 0.038 nM to 600 nM tested)
2 | humanized BR2-14a antibody HBLD (antibody, V domains shown, also called hLIV-1 HB + hLIV-1 LD) VH: QVQLVQSGAEVKKPGASVKVSCKASGYTIEDYYMHWVRQAPGQGLEWMGWIDPENGDTEYAPTFQGRVTMTRDTSINTAYMELSRLRSDDTAVYYCARHDAHYGTWFAYWGQGTLVTVSS VL: DVVMTQSPLSLPVTLGQPASISCRSSQSIIRNDGNTYLEWFQQRPGQSPKRLIYRVSNRFSGVPDRFSGSGSGTDFTLKISRVEAEDVGVYYCFQGSHVPYTFGGGTKVEIKR | 17.4 µg/mL | 
3 | humanized BR2-14a antibody HBLC (antibody, V domains shown, also called hLIV-1 HB + hLIV-1 LC) VH: QVQLVQSGAEVKKPGASVKVSCKASGYTIEDYYMHWVRQAPGQGLEWMGWIDPENGDTEYAPTFQGRVTMTRDTSINTAYMELSRLRSDDTAVYYCARHDAHYGTWFAYWGQGTLVTVSS VL: DVVMTQSPLSLPVTLGQPASISCRSSQSIIRNDGNTYLEWFLQRPGQSPRRLIYRVSNRFSGVPDRFSGSGSGTDFTLKISRVEAEDVGVYYCFQGSHVPYTFGGGTKVEIKR | 44 µg/mL | 
4 | humanized BR2-14a antibody HDLB (antibody, V domains shown, also called hLIV-1 HD + hLIV-1 LB) VH: QVQLVQSGAEVKKPGASVKVSCKASGFTFTDYYMHWVRQAPGQGLEWMGWIDPENGDTEYAPTFQGRVTMTRDTSISTAYMELSRLRSDDTAVYYCNVHDAHYGTWFAYWGQGTLVTVSS VL: DVVMTQSPLSLPVTLGQPASISCRSSQSIIRNDGNTYLEWYQQRPGQSPRRLIYRVSNRFSGVPDRFSGSGSGTDFTLKISRVEAEDVGVYYCFQGSHVPYTFGGGTKVEIKR | 2.3 µg/mL | 
5 | humanized BR2-14a antibody HDLD (antibody, V domains shown, also called hLIV-1 HD + hLIV-1 LD) VH: QVQLVQSGAEVKKPGASVKVSCKASGFTFTDYYMHWVRQAPGQGLEWMGWIDPENGDTEYAPTFQGRVTMTRDTSISTAYMELSRLRSDDTAVYYCNVHDAHYGTWFAYWGQGTLVTVSS VL: DVVMTQSPLSLPVTLGQPASISCRSSQSIIRNDGNTYLEWFQQRPGQSPKRLIYRVSNRFSGVPDRFSGSGSGTDFTLKISRVEAEDVGVYYCFQGSHVPYTFGGGTKVEIKR | 67.9 µg/mL | 
6 | humanized BR2-14a antibody HCLF (antibody, V domains shown, also called hLIV-1 HC + hLIV-1 LF) VH: QVQLVQSGAEVKKPGASVKVSCKASGYTFTDYYMHWVRQAPGQGLEWMGWIDPENGDTEYAPTFQGKATMTADTSISTAYMELSRLRSDDTAVYYCARHDAHYGTWFAYWGQGTLVTVSS VL: DVVMTQSPLSLPVTLGQPASISCRSSQSIIRNDGNTYLEWYLQKPGQSPKLLIYRVSNRFSGVPDRFSGSGSGTDFTLKISRVEAEDVGVYYCFQGSHVPYTFGGGTKVEIKR | 1.3 µg/mL | 
7 | humanized BR2-14a antibody HALE (antibody, V domains shown, also called hLIV-1 HA + hLIV-1 LE) VH: QVQLVQSGAEVKKPGASVKVSCKASGYTFTDYYMHWVRQAPGQGLEWMGWIDPENGDTEYAPTFQGRVTMTRDTSISTAYMELSRLRSDDTAVYYCARHDAHYGTWFAYWGQGTLVTVSS VL: DVVMTQSPLSLPVTLGQPASISCRSSQSIIRNDGNTYLEWFQQRPGQSPRLLIYRVSNRFSGVPDRFSGSGSGTDFTLKISRVEAEDVGVYYCFQGSHVPYTFGGGTKVEIKR |  | no binding (tested: 0.038 nM to 600 nM tested)
8 | humanized BR2-14a antibody HALB (antibody, V domains shown, also called hLIV-1 HA + hLIV-1 LB) VH: QVQLVQSGAEVKKPGASVKVSCKASGYTFTDYYMHWVRQAPGQGLEWMGWIDPENGDTEYAPTFQGRVTMTRDTSISTAYMELSRLRSDDTAVYYCARHDAHYGTWFAYWGQGTLVTVSS VL: DVVMTQSPLSLPVTLGQPASISCRSSQSIIRNDGNTYLEWYQQRPGQSPRRLIYRVSNRFSGVPDRFSGSGSGTDFTLKISRVEAEDVGVYYCFQGSHVPYTFGGGTKVEIKR | 37.8 µg/mL | 

Continued, in another order:

Row | EC50 | Binder | binding result
9 | 8.8 µg/mL | humanized BR2-14a antibody HALF (antibody, V domains shown, also called hLIV-1 HA + hLIV-1 LF) VH: QVQLVQSGAEVKKPGASVKVSCKASGYTFTDYYMHWVRQAPGQGLEWMGWIDPENGDTEYAPTFQGRVTMTRDTSISTAYMELSRLRSDDTAVYYCARHDAHYGTWFAYWGQGTLVTVSS VL: DVVMTQSPLSLPVTLGQPASISCRSSQSIIRNDGNTYLEWYLQKPGQSPKLLIYRVSNRFSGVPDRFSGSGSGTDFTLKISRVEAEDVGVYYCFQGSHVPYTFGGGTKVEIKR | 
10 | 66.6 µg/mL | humanized BR2-14a antibody HCLD (antibody, V domains shown, also called hLIV-1 HC + hLIV-1 LD) VH: QVQLVQSGAEVKKPGASVKVSCKASGYTFTDYYMHWVRQAPGQGLEWMGWIDPENGDTEYAPTFQGKATMTADTSISTAYMELSRLRSDDTAVYYCARHDAHYGTWFAYWGQGTLVTVSS VL: DVVMTQSPLSLPVTLGQPASISCRSSQSIIRNDGNTYLEWFQQRPGQSPKRLIYRVSNRFSGVPDRFSGSGSGTDFTLKISRVEAEDVGVYYCFQGSHVPYTFGGGTKVEIKR | 
11 | 1.8 µg/mL | humanized BR2-14a antibody HCLB (antibody, V domains shown, also called hLIV-1 HC + hLIV-1 LB) VH: QVQLVQSGAEVKKPGASVKVSCKASGYTFTDYYMHWVRQAPGQGLEWMGWIDPENGDTEYAPTFQGKATMTADTSISTAYMELSRLRSDDTAVYYCARHDAHYGTWFAYWGQGTLVTVSS VL: DVVMTQSPLSLPVTLGQPASISCRSSQSIIRNDGNTYLEWYQQRPGQSPRRLIYRVSNRFSGVPDRFSGSGSGTDFTLKISRVEAEDVGVYYCFQGSHVPYTFGGGTKVEIKR | 
12 | 19.9 µg/mL | humanized BR2-14a antibody HBLA (antibody, V domains shown, also called hLIV-1 HB + hLIV-1 LA) VH: QVQLVQSGAEVKKPGASVKVSCKASGYTIEDYYMHWVRQAPGQGLEWMGWIDPENGDTEYAPTFQGRVTMTRDTSINTAYMELSRLRSDDTAVYYCARHDAHYGTWFAYWGQGTLVTVSS VL: DVVMTQSPLSLPVTLGQPASISCRSSQSIIRNDGNTYLEWFQQRPGQSPRRLIYRVSNRFSGVPDRFSGSGSGTDFTLKISRVEAEDVGVYYCFQGSHVPYTFGGGTKVEIKR | 
13 | 0.7 µg/mL | humanized BR2-14a antibody HBLF (antibody, V domains shown, also called hLIV-1 HB + hLIV-1 LF) VH: QVQLVQSGAEVKKPGASVKVSCKASGYTIEDYYMHWVRQAPGQGLEWMGWIDPENGDTEYAPTFQGRVTMTRDTSINTAYMELSRLRSDDTAVYYCARHDAHYGTWFAYWGQGTLVTVSS VL: DVVMTQSPLSLPVTLGQPASISCRSSQSIIRNDGNTYLEWYLQKPGQSPKLLIYRVSNRFSGVPDRFSGSGSGTDFTLKISRVEAEDVGVYYCFQGSHVPYTFGGGTKVEIKR | 
14 | 25.5 µg/mL | humanized BR2-14a antibody HALC (antibody, V domains shown, also called hLIV-1 HA + hLIV-1 LC) VH: QVQLVQSGAEVKKPGASVKVSCKASGYTFTDYYMHWVRQAPGQGLEWMGWIDPENGDTEYAPTFQGRVTMTRDTSISTAYMELSRLRSDDTAVYYCARHDAHYGTWFAYWGQGTLVTVSS VL: DVVMTQSPLSLPVTLGQPASISCRSSQSIIRNDGNTYLEWFLQRPGQSPRRLIYRVSNRFSGVPDRFSGSGSGTDFTLKISRVEAEDVGVYYCFQGSHVPYTFGGGTKVEIKR | 
15 | 4.9 µg/mL | humanized BR2-14a antibody HALD (antibody, V domains shown, also called hLIV-1 HA + hLIV-1 LD) VH: QVQLVQSGAEVKKPGASVKVSCKASGYTFTDYYMHWVRQAPGQGLEWMGWIDPENGDTEYAPTFQGRVTMTRDTSISTAYMELSRLRSDDTAVYYCARHDAHYGTWFAYWGQGTLVTVSS VL: DVVMTQSPLSLPVTLGQPASISCRSSQSIIRNDGNTYLEWFQQRPGQSPKRLIYRVSNRFSGVPDRFSGSGSGTDFTLKISRVEAEDVGVYYCFQGSHVPYTFGGGTKVEIKR | 
